Results reported in US20120276114A1, “IFN-GAMMA INHIBITORS IN THE TREATMENT OF MOTONEURON DISEASES” (UNIVERSITE D'AIX-MARSEILLE, priority 2009, published 2012).

How the values were obtained:
[1] = tested on: motoneurons
Description: Motoneuron survival was determined 48 h following treatment or not with LT-βR-Fc (100 ng/ml), Fas-Fc (1 μg/ml) or TNFR1-Fc (100 ng/ml) in combination or not with 250 ng/ml of IFNγ. The number of surviving motoneurons is expressed as a percentage of the number of motoneurons in the control condition (none).
Motoneurons from E12.5 spinal cord of CD1, Hb9::GFP, or SOD1^G93A embryos were isolated as described (Arce et al., 1999, J. Neurosci. Res., 55, 119-12) modified by Raoul et al., 2002, above, using iodixanol density gradient centrifugation. Motoneurons were plated on poly-ornithine/laminin-treated wells in the presence (or not when mentioned) of a cocktail of neurotrophic factors (0.1 ng/ml glial-derived neurotrophic factor (GDNF), 1 ng/ml brain-derived neurotrophic factor (BDNF), and 10 ng/ml ciliary neurotrophic factor (CNTF) in supplemented Neurobasal Medium™ (Invitrogen). When needed, motoneurons were electroporated before plating with the indicated expression constructs as previously described in Raoul et al., 2002, above. Motoneurons from E14 rat embryos were immunopurified using Ig192 mouse monoclonal anti-p75 antibody as previously described in Cassina et al., 2008, above and cultured in supplemented Neurobasal medium in the presence of GDNF (0.1 ng/ml). […] Cortical, hippocampal, sensory and striatal neurons were plated on poly-ornithine/laminin-treated wells and cultured in Neurobasal medium complemented with 1 mM sodium pyruvate, 2% B27 supplement (Invitrogen) at the exception of sensory neurons that were maintained in the same supplemented Neurobasal medium used for motoneurons but in the presence of 100 ng/ml nerve growth factor (NGF) instead of GDNF, BDNF and CNTF. Unless otherwise indicated, cell survival experiments were done on neurons isolated from CD1 mice. All neuronal types were seeded at the density of 1,500 cells/cm^2 and surviving neurons were directly counted under light or fluorescence microscopy.
Soluble human recombinant LIGHT and FasL, enhancer antibodies used for aggregating tagged sFasL, Fas-Fc, TNFR1-Fc, LT-βR-Fc, were purchased from Alexis Biochemicals. Soluble mouse recombinant LIGHT, functional goat polyclonal anti-LT-βR anti-HVEM antibodies were purchased from R&D systems. Soluble mouse recombinant IFNγ (source 1) was purchased from Calbiochem. Soluble mouse recombinant IFNγ (source 2) and soluble recombinant rat IFNγ were from PBL Biomedical laboratories. Neutralizing goat polyclonal anti-IFNγ antibodies (15027) were purchased from Sigma-Aldrich.

[2] = tested on: LIGHT; assay: expression levels of LIGHT in motoneurons exposed to IFNγ; format: cell-based, mouse
Description: Neurons were plated at the density of 20,000 cells/cm^2 in 6-cm diameter dishes containing corresponding complemented Neurobasal medium (see above). Sodium dodecyl sulfate polyacrylamide gel electrophoresis (SDS-PAGE) and Western blotting were carried out on neurons, astrocytes (duplicates) and dissected lumbar spinal cords using protocol previously described in Raoul et al., 2005, above. Primary antibodies were anti-LT-βR (sc-8377, Santa Cruz Biotechnology, 1:500), anti-LIGHT (sc-28880, Santa Cruz Biotechnology, 1:500), anti-IFNγ (sc-52557, Santa Cruz Biotechnology, 1:500), anti-IFNγR1 (559911, BD Biosciences, 1:500), anti-IFNγR2 (ab31606, Abcam, 1:2000), anti-α-tubulin (B-5-1-2, Sigma-Aldrich, 1:20,000), anti-actin (AC-40, Sigma-Aldrich, 1:20,000). Proteins were detected using horseradish peroxidase (HRP)-conjugated secondary antibodies and visualized with the chemiluminescent HRP substrate (Millipore). Where indicated, immunoblot images were quantified and normalized relative to the α-tubulin or actin levels using the NIH ImageJ software.

[3] = tested on: sFasL-induced death of motoneurons; assay: AAV-delivered COMP chimeric receptors: rescue of motoneurons from sFasL-induced death; format: cell-based, mice; conditions: AAV vectors; sFasL 50 ng/ml; survival 48 h later
Description: (§1) FIG. 7 evidences the efficiency of recombinant proteins IFNγR1-COMP, DcR3-COMP, and Fas-COMP (in the form of AAV viral vectors at 1.5×10^5 TU/ml), to interfere with death induced by their respective ligand(s) or cytokine (sFasL (50 ng/ml), sLight (50 ng/ml), IFNγ (250 ng/ml)), in contrast to the negative control (COMP). Cell survival was determined 48 h later as described in Example 4. All values are expressed as the means±S.D of three independent experiments.
(§2) The functionality of the dominant negatives in inhibiting Fas and LIGHT/IFNγ-induced death was evaluated in an isolated motoneurons culture system as described in Example 2. Embryonic motoneurons isolated from spinal cords of E12.5 CD1 mice were cultured for 6 h and then infected with 50 TU/ml of indicated with AAV-IFNγR1-COMP, AAV-DcR3-COMP, AAV-Fas-COMP, or AAV-COMP viral vectors. After 6 h of incubation the culture medium was replaced and motoneurons were treated 48 h later (when indicated) with effective doses of either sFasL (50 ng/ml), sLight (50 ng/ml) or IFNγ (250 ng/ml). Forty-eight hours later, survival was determined by direct counting of motoneurons (FIG. 7). […] On the other hand, IFNγ-triggered death was blocked by IFNγR1-COMP.

[4] = tested on: IFNγ-triggered death of motoneurons; assay: AAV-delivered COMP chimeric receptors: rescue of motoneurons from IFNγ-triggered death; format: cell-based, mice; conditions: AAV vectors; IFNγ 250 ng/ml; survival 48 h later
Description: as §1, §2

[5] = tested on: sLIGHT-induced death of motoneurons; assay: AAV-delivered COMP chimeric receptors: rescue of motoneurons from sLIGHT-induced death; format: cell-based, mice; conditions: AAV vectors; sLight 50 ng/ml; survival 48 h later
Description: as §1, §2

[6] = tested on: corresponding recombinant ligand (recombinant soluble LIGHT and IFNγ); assay: immunoprecipitation of ligand-receptor complex from conditioned media of transduced glioma cell lines; format: binding; conditions: anti-HA immunoprecipitation, immunoblot
Description: The constructs were checked by sequencing. The efficacy of IFNγR1-COMP, DcR3-COMP, Fas-COMP, and COMP to be efficiently secreted by astrocytes and to specifically interact with their respective ligands were evaluated in vitro by immunoprecipitation assays. Glioma cell lines were transduced with vectors encoding IFNγR1-COMP, DcR3-COMP, Fas-COMP, or COMP and conditioned media collected. Recombinant soluble LIGHT and IFNγ were added to different conditioned media. Immunoprecipitation of ligand-receptor complex were performed using anti-hemagglutinin (HA) tag antibody, since these constructs include an HA tag at their C-terminus, and immunocomplexes analysed by SDS-PAGE followed by immunoblotting with antibodies to LIGHT, IFNγR1 and IFNγ.

B1: IFNγ: Soluble mouse recombinant IFNγ (Calbiochem; PBL Biomedical laboratories) (protein, UniProt P01580 23-155, looked up)
Interferon gamma: HGTVIESLESLNNYFNSSGIDVEEKSLFLDIWRNWQKDGDMKILQSQIISFYLRLFEVLKDNQAISNNISVIESHLITTFFSNSKAKKDAFMSIAKFEVNNPQVQRQAFNELIRVVHQLLPESSLRKRKRSRC
B1 was tested, and the “cell-type restriction of the synergistic lethal effect of IFNγ on LIGHT-induced death” value ([1]; compared with cortical, hippocampal, sensory and striatal neurons) was “restricted to motoneurons”, the death of motoneurons ([1]; cultured motoneurons, survival 48 h after treatment) was “about 50%” and the “effect on sFasL-induced death” value ([1]; motoneurons) was “no effect”. The “effect on LIGHT killing effect” value ([1]; suboptimal dose of sLIGHT and increasing doses of IFNγ) was “substantially enhances”, the “responsiveness of freshly isolated motoneurons to sLIGHT or agonistic anti-LT-βR antibodies” value ([1]; treated at 0, 24 or 72 h, IFNγ combined with sLIGHT or anti-LT-βR antibodies) was “responsive to sLIGHT or agonistic anti-LT-βR antibodies” and the “expression levels of LIGHT” value [2] was “significantly enhancing”.

B2: COMP: negative control generated by deleting approximately 80% of the extra-cellular part of Fas (secreted COMP) (protein)
chain: PQPQPKPQPKPEPEGDLAPQMLRELQETNAALQDVRELLRHRVKEITFLKNTVMECDACGYPYDVPDYA
modifications: amino acid sequence of a coiled-coil domain of cartilage oligomeric matrix protein
In the case of B2, the “rescue of motoneurons from sFasL-induced death” value [3] is reported as “did not interfere”, the “rescue of motoneurons from IFNγ-triggered death” value [4] is reported as “did not interfere” and the “rescue of motoneurons from sLIGHT-induced death” value [5] is reported as “did not interfere”.

B3: DcR3-COMP: Extracellular part of DcR3 fused to COMP (SEQ ID NO: 17), decoy for both FasL and LIGHT, AAV-expressed (protein)
chain: MRALEGPGLSLLCLVLALPALLPVPAVRGVAETPTYPWRDAETGERLVCAQCPPGTFVQRPCRRDSPTTCGPCPPRHYTQFWNYLERCRYCNVLCGEREEEARACHATHNRACRCRTGFFAHAGFCLEHASCPPGAGVIAPGTPSQNTQCQPCPPGTFSASSSSSEQCQPHRNCTALGLALNVPGSSSHDTLCTSCTGFPLSTRVPGAEECERAVIDFVAFQDISIKRLQRLLQALEAPEGWGPTPRAGRAALQLKLRRRLTELLGAQDGALLVRLLQALRVARMPGLERSVRERFLPVHPQPQPKPQPKPEPEGDLAPQMLRELQETNAALQDVRELLRHRVKEITFLKNTVMECDACGYPYDVPDYA
modifications: AAV-expressed; Sequence for chimeric protein DcR3-COMP
B3 was tested, and the “rescue of motoneurons from sFasL-induced death” value [3] was “rescued”, the “rescue of motoneurons from sLIGHT-induced death” value [5] was “rescued” and the “interaction with corresponding recombinant ligand (immunoprecipitation)” value [6] was “effectively interact”.

B4: IFNγR1-COMP: Extracellular part of IFNγR1 fused to COMP, HA-tagged (SEQ ID NO: 15), expressed from AAV vector (protein)
chain: MGPQAAAGRMILLVVLMLSAKVGSGALTSTEDPEPPSVPVPTNVLIKSYNLNPVVCWEYQNMSQTPIFTVQVKVYSGSWTDSCTNISDHCCNIYGQIMYPDVSAWARVKAKVGQKESDYARSKEFLMCLKGKVGPPGLEIRRKKEEQLSVLVFHPEVVVNGESQGTMFGDGSTCYTFDYTVYVEHNRSGEILHTKHTVEKEECNETLCELNISVSTLDSRYCISVDGISSFWQVRTEKSKDVCIPPFHDDRKERPQPQPQPKPQPKPEPEGDLAPQMLRELQETNAALQDVRELLRHRVKEITFLKNTVMECDACGYPYDVPDYA
modifications: HA tag; AAV-expressed; amino acid sequence of mouse IFN gamma R1-cartilage oligomeric matrix protein chimera
In the case of B4, the “rescue of motoneurons from IFNγ-triggered death” value [4] is reported as “blocked” and the “interaction with corresponding recombinant ligand (immunoprecipitation)” value [6] is reported as “effectively interact”.
